The values that follow come from patent US12398179 (SANFORD BURNHAM PREBYS MEDICAL DISCOVERY INSTITUTE, dated 2025).

Data set [1] deals with T1, endogenous EphA2 expressed in PC3 prostate cancer cells (UniProt P29317 24-976, limits assumed). As to the kind of experiment: cell-based or functional assay.
Data set [2] addresses T2, EphA2 extracellular domain fused to the Fc portion of an antibody (EphA2 Fc).
T2 construct: extracellular domain; Immobilized in the ELISAs
Put plainly: competition ELISA: inhibition of ephrin-A5 AP binding to immobilized EphA2 Fc; average ± SE (number of experiments). Background: An ELISA detects its analyte on a solid surface through an enzyme-linked reagent.

Data set [3] concerns the target T3, EphA2 ligand binding domain (EphA2 LBD, residues 28-200) with N-terminal MASQGPG and C-terminal Ala-6xHis tag (UniProt P29317 28-200).
T3 construct: range 28-200; Expressed in E. coli Origami 2 (DE3); used for ITC and crystallization
As to the kind of experiment: ITC, peptide titrated into EphA2 LBD, 23 °C; average ± SE (number of experiments). For orientation: ITC needs no label: the signal is the heat of the interaction.
Description: For ITC, all peptides were dissolved in DMSO and both the EphA2 LBD and the peptides were diluted to obtain a final buffer containing 9.5 mM HEPES, pH 7.9, 95 mM NaCl, and 5% DMSO. […] Two-microliter aliquots of a peptide solution were injected into the cell containing 205 µL EphA2 LBD. 200-400 µM peptides were titrated into 20-40 µM EphA2 LBD. Experimental data were analyzed using the Origin software package (Microcal). The integrated values for the reaction heats were normalized to the amount of injected peptide after blank subtraction.

Data set [4] deals with T2, EphA2 extracellular domain fused to the …. As to the kind of experiment: ELISA, inhibition of ephrin-A5 AP binding to immobilized EphA2 Fc; representative experiment; concentrations in nM.
The target in data set [5] is T1, endogenous EphA2 expressed in PC3 …. As to the kind of experiment: cell-based or functional assay. This is another data set of the same source.
Data set [6] has the same target. As to the kind of experiment: cell-based or functional assay. This is another data set of the same source.
Data set [7] shares this target. As to the kind of experiment: cell-based or functional assay. The source holds these as a separate data set.
Data set [8] has the same target. As to the kind of experiment: cell-based or functional assay. The source holds these as a separate data set.
Data set [9] has the same target. Put plainly: cell-based or functional assay. The source holds these as a separate data set.
The target is the same in data set [10]. As to the kind of experiment: cell-based or functional assay. The source holds these as a separate data set.
Data set [11] deals with the molecule itself. As to the kind of experiment: quantitative FRET in HEK293 cells, monomer-dimer fit; dimerization of the mutant in the presence of 50 µM YSA-GSGSK-bio; row assigned as for Kdiss.
Data set [12] concerns the molecule itself. Put plainly: quantitative FRET in HEK293 cells, monomer-dimer fit; dimerization of the mutant without peptide; row assigned as for Kdiss.
In data set [13] the target is T2, EphA2 extracellular domain fused to the …. As to the kind of experiment: competition ELISA: inhibition of ephrin-A5 AP binding to EphA2 Fc.
In data set [14] the target is T1, endogenous EphA2 expressed in PC3 …. As to the kind of experiment: cell-based or functional assay. This is another data set of the same source.

Read-outs that look alike come from different tables or passages of the source. Non-standard residues stand in square brackets, D forms with d. No end group written: not given here. *: point of attachment. Biotin = O=C1N[C@H]2[C@H](CS[C@H]2CCCCC(=O)*)N1; βAla = NCCC(=O)O

T3 sequence (P29317 other isoform, or with tags, fused parts or gaps limits assumed, form in doubt): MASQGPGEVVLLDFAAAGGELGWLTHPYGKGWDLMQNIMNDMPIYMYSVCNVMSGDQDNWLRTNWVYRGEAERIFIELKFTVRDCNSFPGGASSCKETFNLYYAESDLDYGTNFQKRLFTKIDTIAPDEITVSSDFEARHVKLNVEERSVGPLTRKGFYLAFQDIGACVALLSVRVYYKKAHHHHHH
T2 sequence (P29317 whole entry, the tested form may be a part): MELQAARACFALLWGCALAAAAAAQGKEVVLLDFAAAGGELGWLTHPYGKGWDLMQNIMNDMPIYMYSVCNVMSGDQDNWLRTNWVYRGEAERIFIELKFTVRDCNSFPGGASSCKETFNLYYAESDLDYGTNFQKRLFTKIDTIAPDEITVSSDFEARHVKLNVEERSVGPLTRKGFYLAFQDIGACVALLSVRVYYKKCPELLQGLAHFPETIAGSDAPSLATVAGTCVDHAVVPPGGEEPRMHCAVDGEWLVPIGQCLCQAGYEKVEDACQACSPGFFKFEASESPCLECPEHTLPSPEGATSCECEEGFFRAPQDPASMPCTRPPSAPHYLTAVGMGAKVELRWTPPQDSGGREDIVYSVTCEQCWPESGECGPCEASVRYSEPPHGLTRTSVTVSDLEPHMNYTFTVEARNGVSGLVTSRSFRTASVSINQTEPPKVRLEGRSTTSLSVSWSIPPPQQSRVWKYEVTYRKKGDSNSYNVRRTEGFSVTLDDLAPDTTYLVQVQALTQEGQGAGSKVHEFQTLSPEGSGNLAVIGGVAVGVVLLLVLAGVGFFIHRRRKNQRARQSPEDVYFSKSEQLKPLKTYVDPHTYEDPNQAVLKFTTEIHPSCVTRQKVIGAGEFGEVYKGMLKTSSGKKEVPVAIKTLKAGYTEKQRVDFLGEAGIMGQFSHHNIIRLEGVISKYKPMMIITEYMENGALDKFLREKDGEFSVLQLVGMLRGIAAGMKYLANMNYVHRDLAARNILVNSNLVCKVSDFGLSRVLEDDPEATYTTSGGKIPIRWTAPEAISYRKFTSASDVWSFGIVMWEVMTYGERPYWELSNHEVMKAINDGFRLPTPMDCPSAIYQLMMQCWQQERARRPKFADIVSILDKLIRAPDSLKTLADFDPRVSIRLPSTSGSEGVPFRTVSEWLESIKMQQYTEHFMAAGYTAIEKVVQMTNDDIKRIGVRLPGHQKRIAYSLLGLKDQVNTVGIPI

For the molecule [βAla]WLAYPDSVPYSPK(Biotin) [βA-WLA-YSPK-bio], in data set [1], the “EC50 of EphA2 pY588 induction, immunoblot, PC3 cells, 15 min” value (from here on “EC50 of EphA2 pY588 induction”) worked out at 37 nM and the “IC50 of AKT S473 phosphorylation (pAKT), immunoblot, PC3 cells, 15 min” value (“IC50 of AKT S473 phosphorylation (pAKT)” below) stood at 30 nM.

Molecule [βAla]WLAYPDSVPYRPK (also called BA-WLA-YRPK) [βA-WLA-YRPK] showed an IC50 in data set [2] of 55 nM. Besides, in data set [3], the Kd amounted to 190 nM. The molecule also came in with an IC50 in data set [4] of 53 nM. Further, in [5], the “EC50 of EphA2 pY588 induction” value was determined as 300 nM and the “IC50 of AKT S473 phosphorylation (pAKT)” value stood at 500 nM.

Turning to [βAla]WLAYPDSVPYGSGK(Biotin) [βA-WLA-YGSGK-bio], in data set [6], the “EC50 of EphA2 pY588 induction” value was determined as 1 µM.

As for [βAla]WLAYPDSVPYK(Biotin) [βA-WLA-YK-bio], in data set [7], the “IC50 of AKT S473 phosphorylation (pAKT)” value is 0.97 µM.

With YSAYPDSVPMMSGSGSK [YSA-GSGSK], the IC50 in data set [2] and in data set [4] was 4500 nM each time. Also, binding in data set [3] was characterised by a dissociation constant (Kd) of 8000 nM.

B1: βA-WLA-YRPK-bio (peptide)
peptide: [βAla]WLAYPDSVPYRPK(Biotin)
notes: also called bA-WLA-YRPK-bio; BA-WLA-YRPK-bio
In turn, B1 registered an IC50 in data set [4] of 37 nM. In other words, the double-digit nanomolar range.

In the case of [βAla]WLAYPDSVPYGSK(Biotin) [βA-WLA-YGSK-bio], in data set [8], the “EC50 of EphA2 pY588 induction” value is 2.2 µM and the “IC50 of AKT S473 phosphorylation (pAKT)” value turned out to be 0.93 µM.

KAWLAYPDSVPYRPK (biotin on the N-terminal lysine (K-bio); C-terminal amide (am)) [K-bioA-WLA-YRPKam] returned an IC50 in [4] of 14 nM.

B2: βA-WLA-YSK-bio (peptide)
peptide: [βAla]WLAYPDSVPYSK(Biotin)
notes: also called bA-WLA-YSK-bio; BA-WLA-YSK-bio
In data set [2], B2 gave an IC50 of 300 nM.

For the molecule [βAla]WLAYPDSVPYRPK(Ac) [βA-WLA-YRP-acK], in [9], the “EC50 of EphA2 pY588 induction” value was 190 nM and the “IC50 of AKT S473 phosphorylation (pAKT)” value amounted to 370 nM.

B3: YSA-GSGSK-bio (peptide)
peptide: YSAYPDSVPMMSGSGSK(Biotin)
notes: YSA with C-terminal GSGSK linker and biotin on the lysine side chain; also called YSA-GSGSK-biotin; YSA-GSGSK-bio peptide
B3 showed an IC50 in [2] of 820 nM.

The molecule [βAla]WLAYPDSVPYRPK-NH2 (also called BA-WLA-YRPKam) [βA-WLA-YRPKam] came in with an IC50 in data set [2] of 19 nM. Besides, the Kd in data set [3] is 110 nM. Moreover, the concentration for half-maximal inhibition (IC50) in data set [4] worked out at 24 nM. Also, in data set [10], the “EC50 of restoration of pAKT (S473) in cells treated with 0.1 µg/ml ephrin-A1 Fc, immunoblot, PC3 cells” value was determined as 2.4 µM and the “IC50 of inhibition of EphA2 pY588 induced by 0.1 µg/ml ephrin-A1 Fc, immunoblot, PC3 cells” value was 3.2 µM.

B4: L223R/L254R/V255R (receptor)
chain: AQGKEVVLLDFAAAGGELGWLTHPYGKGWDLMQNIMNDMPIYMYSVCNVMSGDQDNWLRTNWVYRGEAERIFIELKFTVRDCNSFPGGASSCKETFNLYYAESDLDYGTNFQKRLFTKIDTIAPDEITVSSDFEARHVKLNVEERSVGPLTRKGFYLAFQDIGACVALLSVRVYYKKCPELLQGLAHFPETIAGSDAPSRATVAGTCVDHAVVPPGGEEPRMHCAVDGEWRRPIGQCLCQAGYEKVEDACQACSPGFFKFEASESPCLECPEHTLPSPEGATSCECEEGFFRAPQDPASMPCTRPPSAPHYLTAVGMGAKVELRWTPPQDSGGREDIVYSVTCEQCWPESGECGPCEASVRYSEPPHGLTRTSVTVSDLEPHMNYTFTVEARNGVSGLVTSRSFRTASVSINQTEPPKVRLEGRSTTSLSVSWSIPPPQQSRVWKYEVTYRKKGDSNSYNVRRTEGFSVTLDDLAPDTTYLVQVQALTQEGQGAGSKVHEFQTLSPEGSGNLAVIGGVAVGVVLLLVLAGVGFFIHRRRKNQRARQSPEDVYFSKSEQLKPLKTYVDPHTYEDPNQAVLKFTTEIHPSCVTRQKVIGAGEFGEVYKGMLKTSSGKKEVPVAIKTLKAGYTEKQRVDFLGEAGIMGQFSHHNIIRLEGVISKYKPMMIITEYMENGALDKFLREKDGEFSVLQLVGMLRGIAAGMKYLANMNYVHRDLAARNILVNSNLVCKVSDFGLSRVLEDDPEATYTTSGGKIPIRWTAPEAISYRKFTSASDVWSFGIVMWEVMTYGERPYWELSNHEVMKAINDGFRLPTPMDCPSAIYQLMMQCWQQERARRPKFADIVSILDKLIRAPDSLKTLADFDPRVSIRLPSTSGSEGVPFRTVSEWLESIKMQQYTEHFMAAGYTAIEKVVQMTNDDIKRIGVRLPGHQKRIAYSLLGLKDQVNTVGIPI
modifications: A C-terminal fluorescent protein tag (mTURQ donor or EYFP acceptor) is not carried in the letters.
notes: also called EphA2 L223R/L254R/V255R; clustering interface triple mutant; not shown: C-terminal fluorescent protein (mTURQ or EYFP) and any linker to it
Consider B4, for which the ΔG of dimerization in data set [11] is -5 kcal/mol; in data set [12], -3.8 kcal/mol.

[βAla]WLAYPDSVPY-NH2 (also called bA-WLA-Yam; BA-WLA-Yam) [βA-WLA-Yam]: the “fold improvement in potency against βA-WLAam” value in data set [13] is around 2 fold. For the same molecule, the IC50 in [2] amounted to 410 nM; in [4], 440 nM.

Regarding [βAla]WLAYPDSVPYRPK(Biotin)-NH2 [βA-WLA-YRPKam-bio], in [14], the “EC50 of EphA2 pY588 induction” value was 100 nM and the “IC50 of AKT S473 phosphorylation (pAKT)” value stood at 210 nM.

For orientation: IC50 means the concentration that gives 50% inhibition. One may read the Kd as the concentration at which binding is half-saturated.
